# B1: MOR06189 IgG (antibody, part only; not given: Light chain, constant regions, V domains shown, part only)
# VH: QVQLVESGGGLVQPGGSLRLSCAASGFTFSSYYMNWVRQAPGKGLEWVSAINMIGNVTNYADSVKGRFTISRDNSKNTLYLQMNSLRAEDTAVYYCARDLPLVYTGFAYWGQGTLVTVSS
# B2: MOR06190 IgG (antibody, part only; not given: Light chain, constant regions, V domains shown, part only)
# VH: QVQLVESGGGLVQPGGSLRLSCAASGFTFSSYYMNWVRQAPGKGLEWVSYINPNGMMTNYADSVKGRFTISRDNSKNTLYLQMNSLRAEDTAVYYCARDLPLVYTGFAYWGQGTLVTVSS
# Target: human CD38 Fc-fusion aa 45-300 (human) (UniProt P28907)
# Assay: ELISA on CD38 Fc-fusion protein, IgG format
row,Binder,ELISA CD38 Fc-Fusion protein (% Reactivity of MOR03087)
1,B1,126%
2,B2,125%

# — patent publication US20240309109A1
